Four molecules from patent US7148193B2, “Compounds that bind to growth hormone receptor” (Antyra, Inc., priority 1997, dated 2006) can be followed below.

Values joined by “and” are separate entries in the source; they are usually repeats but may differ in a detail not shown here. Equal entries are not always repeated. Where two headings read alike, the source gives them in different places.

For one test, the target named is T1, ‘hu’ GHBP (Rattus norvegicus, UniProt P16310, L61R).
T1 construct: 1–48 of GHBP; The 3′ oligo used for this reaction encoded the mutation L43R (CTG→AGA); The second PCR reaction amplified the DNA encoding amino acids 38–260; 6xHis; made in house
T1 sequence (P16310 19-278 isoform P16310-2 L61R): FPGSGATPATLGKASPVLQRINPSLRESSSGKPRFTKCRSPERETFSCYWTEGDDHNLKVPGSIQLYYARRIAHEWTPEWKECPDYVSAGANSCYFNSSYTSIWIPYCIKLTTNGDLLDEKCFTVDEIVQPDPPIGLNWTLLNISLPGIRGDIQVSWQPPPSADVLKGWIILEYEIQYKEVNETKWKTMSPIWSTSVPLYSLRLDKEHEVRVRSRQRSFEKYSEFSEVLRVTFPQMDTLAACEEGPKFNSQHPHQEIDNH
Kind of test: Species specificity of binding by ELISA and BIAcore, 'hu' GHBP. The following applies: in words. The method, then: Wells were coated with either recombinant rGHBP or ‘hu’ GHBP (100 ng/well). Additions of H5 (SEQ ID NO:8) and H10 (SEQ ID NOS:9, 80, and 81) phage (10^10/well) and detection were made as described. […] Streptavidin chips were coated with H5 (SEQ ID NO:8) to 1100 RU as described and rGHBP or ‘hu’ GHBP (500 μg/ml) injected as 30 μl samples.
Growth hormone receptors from different species bind human GH as well as their own GH, however human GHR only binds human or monkey GH. […] The sequence of rGHBP was altered by PCR to create a “humanized” version (‘hu’ GHBP; FIG. 9A). Partially purified ‘hu’GHBP (FIG. 9B) was tested for binding using ELISA and BIAcore analysis. […] This was confirmed by BIAcore analysis (FIG. 10B).
The biotinylated control peptide (SEQ ID NO:10) was immobilized onto one flow cell of a SA-5 (streptavidin coated) sensor chip to a final density of 700 RU. On a second flow cell, either hGH (1100 RU final density), H5WT peptide (SEQ ID NO:8; 1100 RU final density), or bGH (730 RU final density) was immobilized. GHBP (either rat or humanized) was injected at a concentration of 500 μg/ml with a flow rate of 5 μl/min. Background binding to the control surface was subtracted prior to further analysis.
In general terms: An ELISA detects its analyte on a solid surface through an enzyme-linked reagent.

A further test concerns the target T2, rGHBP (Rattus norvegicus, UniProt P16310).
T2 construct: 1–48 of GHBP; The 3′ oligo used for this reaction encoded the mutation L43R (CTG→AGA); The second PCR reaction amplified the DNA encoding amino acids 38–260; 6xHis; made in house
T2 sequence (P16310 19-278 isoform P16310-2): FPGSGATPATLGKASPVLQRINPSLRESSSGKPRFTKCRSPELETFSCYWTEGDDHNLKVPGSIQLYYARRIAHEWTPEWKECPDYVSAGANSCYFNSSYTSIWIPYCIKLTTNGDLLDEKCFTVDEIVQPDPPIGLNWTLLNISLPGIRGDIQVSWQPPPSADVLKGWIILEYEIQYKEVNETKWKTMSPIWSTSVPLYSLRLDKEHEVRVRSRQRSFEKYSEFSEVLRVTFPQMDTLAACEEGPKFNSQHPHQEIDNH
Kind of test: Time-resolved fluorometric detection (TRFD) of specific bLigand binding to rGHBP and its competition. The following applies: TRFD; for IC50: competitor added 1 hr before bLigand. The protocol:
For this invention, saEu forms a ternary complex with bP and rGHBP (i.e., the rGHBP:bP:saEu complex). As described herein, the TRFD assay is performed using biotinylated GH (bGH) as bLigand. Biotinylated H5-mutant peptides bP#447 (SEQ ID NO:11) and bP#418 (SEQ ID NO:12) are also used as bLigand (see below). The TRFD assay described herein faithfully reports the competition of ligand binding to the active site of rGHR. To perform the TRFD assays, soluble rGHBP is attached to the surface of microtiter wells, then incubated with bP. Unbound bP is than washed away and (sa)Eu is added to complex with receptor bound bP. The rGHBP:bP bound (sa)Eu is then converted into its highly fluorescent state and detected by TRFD.
Wells were coated with rGHBP(100 ng/well) overnight as described. ED50 and IC50 were calculated from analysis of specific bLigand binding to rGHBP. Competitors were added 1 hr prior to addition of bLigand as described.
rGHBP (50–200 μg/ml in 50 mM NaHCO3) was coated onto low-fluorescence MaxiSorp (Nunc) plates (100 μl/well) overnight at 4° C. The plates were blocked with PBS containing 2% non-fat milk and 0.05% BSA for 2 hr at room temperature, followed by three PBS washes. For competitions, serial dilutions of unlabelled growth hormone (0.1 nM-100 nM) or MAb 2C3 (0.67–67 nM) were added to the plates (100 μl/well) and incubated at room temperature for 1–2 hr. Biotinylated peptide or biotinylated GH (10× concentrations) were incubated in blocking buffer for 30 min to decrease non-specific binding. Ten microliters of the 10× concentrated material was added to the plates and incubated at room temperature for 1 hr to overnight.
The plates were then washed five times with Tris-buffered saline (pH 7.5) containing 0.1% Tween-20 (TTBS). To each well, 100 μl of europium-labeled streptavidin in DELFIA assay buffer (100 mM Tris-HCl, pH 7.8; 150 mM NaCl; 0.5% BSA; 0.05% bovine Ig; 0.05% NaN3; 0.01% Tween-20) was added and incubated for 1.5 hr at room temperature. The plates were then washed five times with TTBS and tapped dry. Subsequently, 100 μl of DELFIA enhancement solution (100 mM acetone-potassium hydrogen phthalate, pH 3.2; 15 mM 2-naphtyltrifluoroacetate; […] tri(n-octyl)-phosphine oxide; 0.1% Triton X-100) was added to each well, and the plates were shaken for 10 min at room temperature. Fluorescence of each sample well was measured at 615 nm using a DELFIA 1234 fluorometer (EG&G Wallac). General procedure and references as described by Wallac are available in “Lanthanide labeling for time-resolved fluorometry”: Wallac publication 1244–1126-03.

B1: bovine GH: bovine growth hormone (protein)
chain: AFPAMSLSGLFANAVLRAQHLHQLAADTFKEFERTYIPEGQRYSIQNTQVAFCFSETIPAPTGKNEAQQKSDLELLRISLLLIQSWLGPLQFLSRVFTNSLVFGTSDRVYEKLKDLEEGILALMRELEDGTPRAGQILKQTYDKFDTNMRSDDALLKNYGLLSCFRKDLHKTETYLRVMKCRRFGEASCAF
Turning to B1, in the test with ‘hu’ GHBP, the “binding to ‘hu’ GHBP” value is given as “failed to bind”.

B2: GH: non-biotinylated growth hormone, the cognate ligand of GHBP (protein, UniProt P01244 27-216, looked up)
Somatotropin: FPAMPLSSLFANAVLRAQHLHQLAADTYKEFERAYIPEGQRYSIQNAQAAFCFSETIPAPTGKEEAQQRTDMELLRFSLLLIQSWLGPVQFLSRIFTNSLMFGTSDRVYEKLKDLEEGIQALMQELEDGSPRIGQILKQTYDKFDANMRSDDALLKNYGLLSCFKKDLHKAETYLRVMKCRRFAESSCAF
Turning to B2, the IC50 in the test with rGHBP (competition of bGH (2 nM) binding, read-out: IC50 vs. bGH) is 5 nM; with rGHBP (competition of bP#418 (300 nM) binding, read-out: IC50 vs. bP#418 (SEQ ID NO: 12)) it was 2 nM; with rGHBP (competition of bP#447 (300 nM) binding, read-out: IC50 vs. bP#447 (SEQ ID NO: 11)), 0.4 nM.

B3: bGH: biotinylated GH used as bLigand in the TRFD assay (protein, UniProt P01244 27-216, looked up)
Somatotropin: FPAMPLSSLFANAVLRAQHLHQLAADTYKEFERAYIPEGQRYSIQNAQAAFCFSETIPAPTGKEEAQQRTDMELLRFSLLLIQSWLGPVQFLSRIFTNSLMFGTSDRVYEKLKDLEEGIQALMQELEDGSPRIGQILKQTYDKFDANMRSDDALLKNYGLLSCFKKDLHKAETYLRVMKCRRFAESSCAF
modifications: biotin
notes: biotinylated GH used as bLigand in the TRFD assay
B3: the EC50 with rGHBP (wells coated with rGHBP 100 ng/well, read-out: ED50 (half-maximum specific binding)) was ~20 nM and 20 nM.

B4: rat GH: rat growth hormone (protein, UniProt P01244 27-216, looked up)
Somatotropin: FPAMPLSSLFANAVLRAQHLHQLAADTYKEFERAYIPEGQRYSIQNAQAAFCFSETIPAPTGKEEAQQRTDMELLRFSLLLIQSWLGPVQFLSRIFTNSLMFGTSDRVYEKLKDLEEGIQALMQELEDGSPRIGQILKQTYDKFDANMRSDDALLKNYGLLSCFKKDLHKAETYLRVMKCRRFAESSCAF
With B4, in the test with ‘hu’ GHBP, the “binding to ‘hu’ GHBP” value is on record as “failed to bind”.

For orientation: IC50 means the concentration that inhibits the measured activity by half.
